One protein from article PMC3498290, “Mimicking Insect Communication: Release and Detection of Pheromone, Biosynthesized by an Alcohol Acetyl Transferase Immobilized in a Microreactor” (PLoS ONE, 2012) can be followed below.

Substrate in the data set: CC/C=C/C=C\CCCCCCCCO
As to the kind of experiment: batch acetylation assay, Hanes-Woolf plot. The conditions noted are these: free enzyme in batch, before immobilization; co-substrate acetyl-CoA (300 µM in the preliminary time course); alcohol 1.25 µM-1.3 mM. It counts as biochemical, Acinetobacter baylyi.

B1: Acinetobacter wax synthase (atf, alcohol acetyl transferase; His6-tagged diacylglycerol acyl transferase) (Acinetobacter baylyi ADP1) (protein)
chain: MRPLHPIDFIFLSLEKRQQPMHVGGLFLFQIPDNAPDTFIQDLVNDIRISKSIPVPPFNNKLNGLFWDEDEEFDLDHHFRHIALPHPGRIRELLIYISQEHSTLLDRAKPLWTCNIIEGIEGNRFAMYFKIHHAMVDGVAGMRLIEKSLSHDVTEKSIVPPWCVEGKRAKRLREPKTGKIKKIMSGIKSQLQATPTVIQELSQTVFKDIGRNPDHVSSFQAPCSILNQRVSSSRRFAAQSFDLDRFRNIAKSLNVTINDVVLAVCSGALRAYLMSHNSLPSKPLIAMVPASIRNDDSDVSNRITMILANLATHKDDPLQRLEIIRRSVQNSKQRFKRMTSDQILNYSAVVYGPAGLNIISGMMPKRQAFNLVISNVPGPREPLYWNGAKLDALYPASIVLDGQALNITMTSYLDKLEVGLIACRNALPRMQNLLTHLEEEIQLFEGVIAKQEDIKTAN
notes: His6-tagged, pET23a, E. coli Rosetta(DE3)pLysS; Ni-NTA and gel filtration; tag kept; plasmid from S. Uthoff (Muenster)
As usually defined, the Km is the concentration of substrate that gives half-maximal velocity. Regarding B1, the Michaelis constant (Km) is 1.63 µM.
